Results on six molecules are retold here after paper PMC7614096, “Head-to-tail polymerization by VEL proteins underpins cold-induced Polycomb silencing in flowering control” (Cell Reports, 2022).

The chains are these.
T1: 6xHisLip-VIN3VEL RR>AD (ITC) (Arabidopsis thaliana, UniProt Q9FIE3 529-603, R554A | R556D)
T1 construct: VEL domain of VIN3, Arabidopsis thaliana, Q9FIE3, R554A R556D; residues 529-603 by the methods' rule for pLipK-VIN3VEL ('unless specified otherwise'); also called VIN3VEL head mutant; source: E. coli BL21(DE3) pRARE2, purified (Ni-NTA, SEC); not shown: 6xHis, N-terminal, kept; lipoyl (Lip) solubility tag, N-terminal, kept
T1 sequence (looked up): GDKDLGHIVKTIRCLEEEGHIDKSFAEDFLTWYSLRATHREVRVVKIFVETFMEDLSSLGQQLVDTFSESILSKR

B1: 6xHisLip-VIN3VEL I575D (ITC) (domain or fragment, Arabidopsis thaliana, UniProt Q9FIE3 529-603, looked up)
chain: T1 sequence (looked up) with A26R, D28R, I47D
notes: VEL domain of VIN3, Arabidopsis thaliana, Q9FIE3, I575D; residues 529-603 by the methods' rule for pLipK-VIN3VEL ('unless specified otherwise'); also called VIN3VEL tail mutant; source: E. coli BL21(DE3) pRARE2, purified (Ni-NTA, SEC); not shown: 6xHis, N-terminal, kept; lipoyl (Lip) solubility tag, N-terminal, kept
B2: VIN3VEL I575D, untagged (domain or fragment, Arabidopsis thaliana, UniProt Q9FIE3 529-603, looked up)
chain: T1 sequence (looked up) with A26R, D28R, I47D
modifications: selenomethionine (labelling for phasing, crystals)
notes: VEL domain of VIN3, Arabidopsis thaliana, Q9FIE3, I575D; also called VIN3 I575D; VIN3VEL tail mutant; source: E. coli BL21(DE3) pRARE2, purified (Ni-NTA, TEV cleavage, SEC); not shown: 6xHis, N-terminal, cleaved
B3: VIN3VEL RR>AD (R554A R556D), residues 529–603, untagged (domain or fragment, Arabidopsis thaliana, UniProt Q9FIE3 529-603, looked up)
chain: T1 sequence (looked up)
modifications: selenomethionine (labelling for phasing, crystals); 13C-15N double-labeled (NMR)
notes: VEL domain of VIN3, Arabidopsis thaliana, Q9FIE3, residues 529-603, R554A R556D; Used for the crystal structure 7O6U and, as 'untagged RR>AD', for NMR; also called VIN3 R554A R556D; VIN3VEL head mutant; source: E. coli BL21(DE3) pRARE2, purified (Ni-NTA, TEV cleavage, SEC); not shown: 6xHis, N-terminal, cleaved
B4: Lip-VEL1VEL (residues 589–692), wild type (domain or fragment, Arabidopsis thaliana, UniProt Q9SUM4 589-692, looked up)
chain: SDEIKNRQARIEISMKDNCNNGDHSANGGTESGLEHCVKIIRQLECSGHIDKNFRQKFLTWYSLRATSQEIRVVKIFIDTFIDDPMALAEQLIDTFDDRVSIKR
notes: VEL domain of VEL1, Arabidopsis thaliana, Q9SUM4, residues 589-692; source: E. coli BL21(DE3) pRARE2, purified (Ni-NTA, SEC); not shown: lipoyl (Lip) solubility tag, N-terminal, kept
B5: Lip-VIN3VEL (residues 500–603), wild type (domain or fragment, Arabidopsis thaliana, UniProt Q9FIE3 500-603, looked up)
chain: GKQGGNKRFKSRTVSLNEKPEINNAANGVGDKDLGHIVKTIRCLEEEGHIDKSFRERFLTWYSLRATHREVRVVKIFVETFMEDLSSLGQQLVDTFSESILSKR
notes: VEL domain of VIN3, Arabidopsis thaliana, Q9FIE3, residues 500-603; also called WT domain; source: E. coli BL21(DE3) pRARE2, purified (Ni-NTA, SEC); not shown: lipoyl (Lip) solubility tag, N-terminal, kept
B6: VEL1VEL I664D, residues 616–692, untagged (domain or fragment, Arabidopsis thaliana, UniProt Q9SUM4 616-692, looked up)
chain: GGTESGLEHCVKIIRQLECSGHIDKNFRQKFLTWYSLRATSQEIRVVKDFIDTFIDDPMALAEQLIDTFDDRVSIKR
modifications: selenomethionine (labelling for phasing)
notes: VEL domain of VEL1, Arabidopsis thaliana, Q9SUM4, residues 616-692, I664D; also called VEL1 I664D; source: E. coli BL21(DE3) pRARE2, purified (Ni-NTA, TEV cleavage, SEC); not shown: 6xHis, N-terminal, cleaved

In data set [1] the target is T1, 6xHisLip-VIN3VEL RR>AD (ITC). Description: ITC; 25°C; 1 mM 6xHisLip-VIN3VEL I575D injected into 100 μM 6xHisLip-VIN3VEL RR>AD; 25 mM Tris pH 7.4, 200 mM NaCl, 0.5 mM DTT, 0.06% NaN3; head-to-tail interface between a head mutant and a tail mutant. To be noted: both partners purified.
Data set [2] concerns the molecule itself. Description: crystal structure; untagged VEL domains bearing polymerization-deficient point mutations, 4–25 mg/mL, sitting-drop vapor diffusion at 18°C; SAD with selenomethionine.
The target of data set [3] is B3. Description: NMR titration; 300 μM 13C-15N VEL RR>AD with 100 μM unlabeled VEL I575D; peak heights in 1H-15N fast-HSQC spectra; 25 mM phosphate pH 6.7, 150 mM NaCl, 283 K. To be noted: both partners purified.
Data set [4] concerns the molecule itself. Description: SEC-MALS; Superdex200 10/300 GL in PBS with 1 mM DTT; increasing protein concentrations (2 mg/mL unless stated otherwise); self-association.

Where a chain is given by its changes, count along the chain named. Names and notes keep the numbering of the source.

As for B1, binding in data set [1] was put at a Kd of 1160 nM.

Consider B2, for which the binding result in data set [2] and in data set [3] was “binds” each time.

In the case of B3, the binding result in data set [2] was “binds”.

Turning to B4, the “stoichiometry N” value in data set [4] was > 20 -mer.

In the case of B5, in data set [4], the “stoichiometry N” value is ~9 -mer.

B6: the binding result in data set [2] is “binds”.
